Source: paper PMC10538476

Biological target: Human macrophage galactose-type lectin (MGL) isoform 2 extracellular domain (human)
Test: SAXS; MGL-ECD at 1 mg/mL in 25 mM Tris pH 8, 150 mM NaCl, 4 mM CaCl2, 25°C; ESRF BM29 beamline; oligomeric state from the estimated molecular weight

Human macrophage galactose-type lectin (MGL) isoform 2 extracellular domain (domain or fragment)
stoichiometry N: 3
